In the assay the target is T1, N-terminally truncated eIF5B (residues 396-1002) with the point mutation T439A (S. cerevisiae, UniProt P39730 396-1002, T439A).
T1 sequence (looked up): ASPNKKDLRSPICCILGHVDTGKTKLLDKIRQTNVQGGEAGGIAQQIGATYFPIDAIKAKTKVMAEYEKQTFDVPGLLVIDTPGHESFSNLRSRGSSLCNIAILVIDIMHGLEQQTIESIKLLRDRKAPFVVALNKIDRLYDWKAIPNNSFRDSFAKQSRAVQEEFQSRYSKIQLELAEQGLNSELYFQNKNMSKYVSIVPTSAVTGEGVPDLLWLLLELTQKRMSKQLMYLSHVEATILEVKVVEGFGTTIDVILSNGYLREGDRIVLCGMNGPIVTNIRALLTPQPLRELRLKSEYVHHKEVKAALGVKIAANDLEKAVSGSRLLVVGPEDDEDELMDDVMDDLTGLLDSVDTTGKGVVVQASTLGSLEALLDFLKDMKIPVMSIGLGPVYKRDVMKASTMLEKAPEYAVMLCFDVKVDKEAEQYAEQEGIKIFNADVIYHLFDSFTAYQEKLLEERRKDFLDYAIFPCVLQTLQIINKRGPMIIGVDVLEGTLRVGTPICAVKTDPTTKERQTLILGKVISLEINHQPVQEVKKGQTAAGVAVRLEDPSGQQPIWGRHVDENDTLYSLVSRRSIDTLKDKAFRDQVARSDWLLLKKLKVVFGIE
Briefly: cryo-EM structure.

B1: ribosomal protein S23 (the yeast orthologue of bacterial protein S12) (natural protein, UniProt P0CX29 1-145, looked up)
chain: MGKGKPRGLNSARKLRVHRRNNRWAENNYKKRLLGTAFKSSPFGGSSHAKGIVLEKLGIESKQPNSAIRKCVRVQLIKNGKKVTAFVPNDGCLNFVDENDEVLLAGFGRKGKAKGDIPGVRFKVVKVSGVSLLALWKEKKEKPRS
For B1, the binding result was “binds”.

The values are drawn from publication PMC3836175 (Science (New York, N.Y.), 2013).
